Data on 2 substances can be found in PMC2116221.

This assay deals with taxol-stabilized microtubules (bovine brain tubulin) (bovine) (UniProt Q6B856). Put plainly: co-sedimentation.
Sequence of UniProt Q6B856 (Q6B856 whole entry, looked up): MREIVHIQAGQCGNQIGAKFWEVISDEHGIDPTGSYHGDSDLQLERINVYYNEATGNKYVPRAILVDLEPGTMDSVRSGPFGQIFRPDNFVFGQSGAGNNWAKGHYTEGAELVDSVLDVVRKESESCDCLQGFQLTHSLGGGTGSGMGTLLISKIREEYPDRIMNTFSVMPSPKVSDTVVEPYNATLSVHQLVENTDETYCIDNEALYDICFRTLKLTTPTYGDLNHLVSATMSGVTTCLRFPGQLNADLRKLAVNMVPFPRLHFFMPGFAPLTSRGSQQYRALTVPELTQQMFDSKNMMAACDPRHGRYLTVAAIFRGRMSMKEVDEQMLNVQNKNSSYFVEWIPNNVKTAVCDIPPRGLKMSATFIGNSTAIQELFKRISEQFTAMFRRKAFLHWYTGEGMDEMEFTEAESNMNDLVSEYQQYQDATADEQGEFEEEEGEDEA

On to “CHO1 antigen, polypeptide of ~115 kD (HeLa cytoplasm) (from UniProt Q02241 1-960) (natural protein)”, for which the percent extracted from microtubules by 0.5 M NaCl stood at 60%.
“CHO1 antigen, polypeptide of ~100 kD (HeLa cytoplasm) (from UniProt Q02241-2 1-856) (natural protein)”: the percent extracted from microtubules by 0.5 M NaCl worked out at 60%.
